experiment: soluble on expression in E. coli; label from the status in PepcDB or PDB records

Sequence	soluble on expression in E. coli
MHHHHHHVMIMKAFISENVRGIYAFDENGNLIEKRYFTDKPEKVLDQLLKGEITKDLEELLNSLKEKGYDEFVFEHPELSRRAKELGFSATTEFPNIAGERLRSNPEEFLGENWFEEYYKVGVALTRMRIQEQSGARDKMVIQAIEALDDVDKVINLLVARLREWYSLHFPELDELLPKHPQYVAFVKTVGHRDNINEEVLRELGLSEEKIKKILEAKEKTMGAWMDQTDIEVVRQLAEEIDRLYQLRKKLEDYIDRAMDDVAPNLKALVGAKLAARLISLAGGLRELAMMPSSTIQVLGAEKALFRHLRTGAKPPKHGVIYQYPAINRSPWWQRGKIARALAGKLAIAARVDYFSGEYIAEELKKELEARIREIK	soluble
GFIDTHVHSGHRALHKLLADGGRPDLFGQPYMDVTIARDGTRIKGYPNYLSREEAAVDPGIALHAAFTVAELLRNGVTTFVELGGHVMVQEALWRECERLGVRGYLGAGYDSGRWAADDQGRLRRVPYPDGGDHLFEEAVAFIKRVQAAGNDLVNGILVPREVENCSVDILRRTVQAAQELGVPMATHAGYNVIEFYETVREHRMTPIELLHSVGMLGPRLNIGHANLISDSPRLNYSGGRDLALMGEHRVSISHCPINIVRRARVLDSWKKYREAGVNLTIGSDTYPRDMVMNMRTASYHGKVMSHDLTAASAAEVFEAATLGGARSLGRTDI	not soluble
EAQTRVKLNFLDQIAKYWELQGSTLKIPHVERKILDLFQLNKLVAEEGGFAVVCKDRKWTKIATKMGFAPGKAVGSHIRGHYERILNPYNLFLSGDSLRCLQKPNLTSDTKDKEY	soluble
MDIEERINLVLKKPTEEVLTVENLRHLFEIGAPLQHYIGFEISGYIHLGTGLMAGAKIADFQKAGIKTRVFLADWHSWINDKLGGDLEVIQEVALKYFKVGMEKSIEVMGGDPKKVEFVLASEILEKGDYWQTVIDISKNVTLSRVMRSITIMGRQMGEAIDFAKLIYPMMQVADIFYQGVTIAHAGMDQRKAHVIAIEVAQKLRYHPIVHEGEKLKPVAVHHHLLLGLQEPPKWPIESEEEFKEIKAQMKMSKSKPYSAVFIHDSPEEIRQKLRKAFCPAREVRYNPVLDWVEYIIFREEPTEFTVHRPAKFGGDVTYTTFEELKRDFAEGKLHPLDLKNAVAEYLINLLEPIRRYFEKHPEPLELMRSVKITR	soluble
CEVDALKGTNESLERQMREMEENFAVEAANYQDTIGRLQDEIQNMKEEMARHLREYQDLLNVKMALDIEIATYRKLLEGEESRI	soluble
MMKAIPVEQAVGTVLCHDLTRIVPGEHKGRAFRKGHIVTEADIPLLLSIGKEHLYVLNLEAHQLHEDEAALRIATAAAGPGISLSEVSEGRINFMASPGLLCVDVEALNAINAIDEVALATMHSGQFIAARRAVAGTRVVPLVIDESKIRQVERICAASYPVVQVKPLRSHSIGVVTTGSEIFHGRIKDKFGPVMRDKFAALGSSVMGQRLVGDAPEATRDAILSFIGEGADMVVVTGGMSVDPDDQTPASIRATGAEVVTYGSPTFPGVMFMLAYLNDIPVLGLPGCVMYYRASIFDLVVPRLLAGERLARRDITSLGHGGFCAGCETCHHPVCPFGKLEHHHHHH	not soluble
MGSDKIHHHHHHMMRRRLPSLIALRAFEAVGRTGSVRAAGDELAVSHTVVSRHLQNLQKFLGVALVRGEGRGVILTEAGVSFHAQISQAFDIIARATTAARPSSLPTLNIWCIPGIANRLLLSRLPELTGPPRNWEVNLQPTLTHPDLSRAEADAEIVYADVIDSRGPLMSEILVRPRVFPVASPAYLARYPAITSLEDLSQIALIHEESTMQWTRWFELAGLDDLPPLRGQRLWHAHLAIEAARLGQGVALANDVLVEEDLRSGALVEVITSSVYMETYQLVALKERWDDPAIVALRNWLKQVLAELE	not soluble
MSLKNARLHVINPDEVATSVLFRLLAPTGIESRHYPCAEDFLNQYQANGPACLLVDMLLPDWGPLRLLGELKRRQIHHPCIFMSYRCEEQTLMELLEQQAFAFIKKPLNQVKLTELIQVAMGQDQKEGHHHHHH	not soluble
MSLTKYIFVTGGVVSSIGKGIVAASLGRLLKNRGLKVTIQKFDPYINVDPGTMSPYQHGEVFVTDDGAETDLDLGHYERFIDINLNKYSNVTTGKIYSEVLRKERKGEYLGATVQVIPHITNEIKEKIMRAAKMTDADVIITEVGGTVGDIESLPFLEALRQMKADMGSDNVMYIHTTLIPYLKAAGEMKTKPTQHSVKELRSLGIQPNILVVRTELPVSQNTKNKLAQFCDVNPEAVIESRDVETLYSIPLALQAQNMDQIVCDHLKLDAPAADMTEWRALEEKVLNLKKKTKIALVGKYVELPDAYISVVEALKHAGFDFDSDIEIDWVDSQELTAENVAERIGSADGILVPGGFGDRGIEGKIEAIRFARENDVPFLGICLGMQMACVEFGRNVVGLEDAGSAETNPDVTNNIIDLMADQENIENLGGTLRLGLYPCKLKKGTKTAAAYGNEDVVQERHRHRYEFNNKYRQLFEENGLVFSGVSPDNRLVEIVEIPEKQFFVACQFHPELISRPNRPQRLIKGFVGAALANKEKGHHHHHH	soluble
MCTSKPKFIPLPEQQSLCSLPNSGCCHVDVKVGRSKWEKRVAVLVQVEGEPDYKIYIYTKPLIGQIYPLNELKKREVKCEKDKVFLVNLASEKGEKITFKATGNNGSIWVAALMSGTFTSPIHETHGHTGGTGTDGTTSNIESDLKEKPDTNVYTGSREGYVPPPAKEGSGSGGKKKDMNNVAVKPDEKKKDSGRKLKKTVSKTITKLSVSESKKKTEKKIAATQKTQEFPIPKTVDEAHTNSEPDGDPLKLKKTITDGNELSLKGATAPTPQKAKLTTPTSTTPASSLTPSNALTPGNEDKKKMTTDSEEIELHEKKK	soluble
MGSSHHHHHHDYDIPTTENLYFQGHMATNLKSTAKLVKPIQYDEVIEVERIFADPAFIEQHRQRILASFKDAKESALYHELTHIVIKDNLFSCAMNAIVGYFEFNIDEAELKNVMEGLKRDVIQGAEDNTVQAIAEKIIKKALVFNHLQKEWKVEITDEVVKNVISLYYEKTNQSVREYLDDKQKFEGVRTALLEERMVLETINHFKFHFNLTGQLPN	soluble
MGSDKIHHHHHHMGNYQHPGIYVQEIAIAPNIEPVAACLPLFIGHTEKSQDANGHPLPLGKRYSVSSLAEYEEHFGKGAPETLRVLLDGKGNIVNAHSYSPFYLYAAVHQYFANGGGQCEILSVGPYSRAPDASALKAAIRALPLNAAFTLVAIPDAVSLAELPQLQRKLLQYCAQQDYCLAILDVPYCNDQTREMTVNTFRHDIGQRGLQHGAAFMPWLETAAAGISGYVDLEIKYTPGVATAWNDFHKATKLQSHLLHKQLEASPAIRFNRMLPPSGSIMALFEANARKRNIWTTPNHTPIKEIISLSATIDNIIQESLNIHPTGKSINAIRRFDNALLMWGGHTLASNDSEWRYIAHLLTRGFVQASLRRFLDQQTFEKNDEATWSLVGHQCQDFLHTLWREGALVGDKPEQAFYVRIGLNQTMSTQDIAAGRIIVHVGIALLRPAEFIILKLHKVISAPDLKPAITRPGKPVNRVKIRAKTSPINVVIRQRQQPSPPSKPLPSEPVS	not soluble
MHVFYSEERRGNLLILREGEVKHFRVRRIEKDEEFGVIHEGKIYVCKVRREDKREISCEIVEELETKLPPKDITLYQSVTVDLKTMDTIVRQATELGVLTFVPIISERSFQKEEAILKKTEKWKRIVIEAMKQSRRPIPMEIKKPVRLSDLIPESEENIILDNFYEGVKPKDVNLEAKTYSVVVGPEGGFSKRESQILREKGFKSVLLEPYTLRTETAVVSIVSILMNFLEHHHHHH	soluble
MGSDKIHHHHHHMPAKVYFTDMTTNPNMNMLQKLELLLKKVELEKIIEKDKFVAVKLHFGEYGNLAFIRPQYVKIIVDQIKKLGGKPFLTDANTLYTGHRSNAVDHLINAYLNGFTYEVTGAPVIIADGLRGSDEIKVKIDGNYVKEAKIGAAIALADAIVAVTHFKGHEATGFGGTIKNVGMGSASRAGKMEQHSESKPYVVEEKCVACGTCAKFCPVGAITVTKVAKIDYEKCIGCGQCIAMCSYGAMSPKWDSSTDSLSKKMAEYAKAVLKDKKAVFISFIMNISPDCDCWNMNKPPVAPDIGIAVSTDPVALDQACIDLVLQKTGKDPFLEVHPDVTWKTQLEYAEEIGLGTREYELVKVACDLK	not soluble
GMNQSIIFTEQLTWDVQLSAIHFTAQQQGMVIDCYIGQKVLEHLAAEKINNSEQALSLFEQFRFDIEEQAEKLIEQEAFDVQGHIQVERVD	soluble
